FireProtDB (doi:10.1021/bi500238q)

B1: Dihydrofolate reductase, Q5KZ26 (parent)
chain: MISHIVAMDENRVIGKDNRLPWHLPADLAYFKRVTMGHAIVMGRKTFEAIGRPLPGRDNVVVTRNRSFRPEGCLVLHSLEEVKQWIASRADEVFIIGGAELFRATMPIVDRLYVTKIFASFPGDTFYPPISDDEWEIVSYTPGGKDEKNPYEHAFIIYERKKAK

Variants of: B1
Details: Geobacillus kaustophilus (strain HTA426); pH 7; Thermal; CD; Potassium Phosphate Buffer 10 mM; structure 1ZDR; whole UniProt chain shown

| Variant | Tm | change of melting temperature, mutant - wild type (higher = more stable) |
| --- | --- | --- |
| P122E | 65.3 °C | -0.9 °C |
| P122E P129D | 65 °C | -1.2 °C |
| L20M | 61.4 °C | -4.8 °C |
| L20M A104Q | 61.1 °C | -5.1 °C |
| P129D | 64.6 °C | -1.6 °C |
